Test results as given in patent publication US20160311911A1, “METHODS FOR TREATING ALLERGIC AIRWAY INFLAMMATION” (priority 2015, published 2016).

How the values were obtained:
Type in all cases: cell-based
Details in all cases: 100 μg/mL for 18 hours
[1] = tested on: TLR4^Hi cells; assay: CXCL8 levels in cell supernatants, TLR4^Hi cells
From the text: (§1) Three HEK 293 cell lines, TCM^Null (TLR4^Null, CD14^Null, MD2^Null), TLR4^Hi (TLR4^Hi, CD14^Null, MD2^Null) and TCM^hi (TLR4^Hi, CD14^Hi, MD2^Hi; InvivoGen, San Diego, Calif.), were used. In some experiments hTERT immortalized normal human bronchial epithelial cells (HBECs) were used, as previously described (17).
(§2) Measurement of CXCL8 levels in cell supernatants. TCM^Null, TLR4^Hi, TCM^Hi, TLR4^Hi-ST, or TLR4^Hi-MD2 cells were stimulated with RWPE, Bermuda grass, rye grass, pigweed, mountain cedar, cat dander, LPS, or Amb a 1 at 100 μg/mL for 18 hours. In some experiments HBECs, HBECs transfected with siRNA against MD2, or sham-transfected HBECs were starved for 24 hours and stimulated with RWPE, Bermuda grass, rye grass, timothy grass, pigweed, Russian thistle, cottonwood, walnut, and cat dander allergenic extracts. Cell supernatants were assayed for CXCL8.

[2] = tested on: TCM^Hi cells; assay: CXCL8 levels in cell supernatants, TCM^Hi cells
From the text: as §1, §2

[3] = tested on: TCM^Null cells; assay: CXCL8 levels in cell supernatants, TCM^Null cells
From the text: as §1, §2

B1: Amb a 1: major allergen in RWPE, a single protein (protein)
chain: AEDLQEILPVNETRRLTTSGAYNIIDGCWRGKADWAENRKALADCAQGFGKGTVGGKDGDIYTVTSELDDDVANPKEGTLRFGAAQNRPLWIIFERDMVIRLDKEMVVNSDKTIDGRGAKVEIINAGFTLNGVKNVIIHNINMHDVKVNPGGLIKSNDGPAAPRAGSDGDAISISGSSQIWIDHCSLSKSVDGLVDAKLGTTRLTVSNSLFTQHQFVLLFGAGDENIEDRGMLATVAFNTFTDNVDQRMPRCRHGFFQVVNNNYDKWGSYAIGGSASPTILSQGNRFCAPDERSKKNVLGRHGEAAAESMKWNWRTNKDVLENGAIFVASGVDPVLTPEQSAGMIPAEPGESALSLTSSAGVLSCQPGAPC
CXCL8 secretion from TLR4^Hi cells [1]: only in TCM^Hi cells
CXCL8 secretion from TCM^Hi cells [2]: induced CXCL8 secretion
CXCL8 secretion from TCM^Null cells [3]: only in TCM^Hi cells
